According to the RNAGym collection of RNA variant scans (doi:10.1093/nar/gkz1192):

B1: CPEB3 Ribozyme (parent)
chain: UAACAGGGGGCCACAGCAGAAGCGUUCACGUCGCAGCCCCUGUCAGAUUCUGGUGAAUCUGCGAAUUCUGCUGUAUAUCUC

Variants of: B1
Test: self-cleavage, relative activity (ratio to wild type); higher = more cleavage; in vitro, sequencing
Summary of the method: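 Barcoded CPEB3 ribozyme mutants, produced by rounds of error-prone PCR, self-cleaved while being transcribed with T7 RNA polymerase for 5 hours at 37°C and during a subsequent 15 min DNase I step before EDTA was added. Sequencing of template-switched cDNA on Illumina gave cleaved and total reads, and DNA sequencing assigned barcodes to variants. Each variant's relative activity is its cleaved/total read fraction divided by the unmutated ribozyme's fraction, averaged across three batches. A variant needed a minimum of 5 reads.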

| Variant | self-cleavage |
| --- | --- |
| C50U U69C | 0.41 |
| C50G | 0.8 |
| C50U | 1.01 |
| C50A | 0.88 |
| U49G U78C | 0.43 |
| U51A U66C | 0.42 |
| U51A U66A | 0.51 |
| U51A C79G | 1.17 |
| U51A C79U | 1.18 |
| C50U U76C | 0.98 |
| C50U U76A | 0.94 |
| U51A U54A | 1.04 |
| U51A U54C | 1.07 |
| U51A U54G | 0.43 |
| C50U A75U | 1.22 |
| U51A G61A | 1.01 |
| U51A A65G | 0.48 |
| U51A A65U | 0.21 |
| U49G U60C | 0.23 |
| U51A U69A | 0.64 |
| U51A U69C | 0.67 |
| C50U U72C | 1.13 |
| C50U U72A | 0.28 |
| U51C A77U | 0.95 |

| Variant | self-cleavage |
| --- | --- |
| U51C A77C | 0.98 |
| U51C A77G | 1.08 |
| U51A U60C | 0.59 |
| U51A U60A | 0.64 |
| U51A U74C | 1.21 |
| U51A U74A | 1.29 |
| C50A A56G | 0.43 |
| U51A C62G | 0.23 |
| U51A C62U | 0.25 |
| U51A C62A | 0.22 |
| C50A U74C | 0.87 |
| C50A C71U | 0.55 |
| C50A C71G | 0.18 |
| C50G U78C | 0.71 |
| U51A G53A | 1.27 |
| U51C A65G | 0.56 |
| U51C A65U | 0.27 |
| C50U U54G | 0.74 |
| C50U U54C | 0.77 |
| U51C C59U | 0.68 |
| U51C C59A | 0.29 |
| U51A U67G | 0.43 |
| U51A U67C | 0.4 |
| U51A U67A | 0.59 |

| Variant | self-cleavage |
| --- | --- |
| C50G U72A | 0.58 |
| C50G U72C | 0.75 |
| U49G U54C | 0.44 |
| C50A U76C | 1.02 |
| C50A U76A | 0.65 |
| C50U U80C | 1.07 |
| U51A U78C | 0.83 |
| U51A U78G | 1.04 |
| U51A U78A | 1 |
| U51A G63U | 1.15 |
| U51A G63A | 1 |
| U51C C71A | 0.53 |
| U51C C71U | 0.62 |
| C50U U78A | 1.12 |
| C50U U78C | 0.97 |
| C50A U51C | 0.93 |
| C50A U51A | 0.84 |
| U51A A77G | 0.93 |
| U51A A77U | 1.03 |
| C50A U67C | 0.2 |
| C50A U67A | 0.38 |
| U49G U80C | 0.48 |
| C50U A65G | 0.4 |
| U49G U51C | 0.63 |

| Variant | self-cleavage |
| --- | --- |
| U51A C68U | 1.04 |
| U51A C68A | 0.4 |
| C50A A65G | 0.31 |
| C50A U60A | 0.27 |
| C50A U60C | 0.13 |
| C50A G73A | 1.24 |
| U51A U58C | 0.54 |
| U51A U58A | 0.3 |
| U51C C68G | 0.69 |
| U51C C68U | 1.14 |
| U51A A57G | 0.56 |
| U51A A57U | 0.53 |
| U51A C81A | 1.1 |
| U51C A75G | 1.01 |
| U51C A75U | 0.98 |
| U51C A75C | 1.21 |
| U51A A56G | 0.5 |
| U51A A56U | 0.68 |
| C50U G63U | 0.82 |
| U51A G70A | 0.61 |
| U51C A64U | 0.42 |
| U51C A64G | 0.81 |
| C50U A64G | 0.99 |
| C50U A64U | 0.52 |

| Variant | self-cleavage |
| --- | --- |
| U51C C81A | 1.18 |
| C50U U67C | 0.31 |
| U51A U72C | 1.15 |
| U51A U72A | 0.69 |
| U51A U72G | 0.91 |
| U51A U76C | 1.11 |
| U51A U76A | 1.09 |
| U51A U76G | 1.09 |
| C50A U72C | 0.86 |
| C50G A75C | 0.54 |
| U49G U58C | 0.2 |
| C50U G52A | 0.99 |
| C50G A57G | 0.51 |
| C50A U54A | 0.88 |
| C50A U54C | 0.83 |
| C50U C79U | 1.16 |
| C50A A64C | 0.43 |
| C50A A64G | 0.73 |
| C50U U51A | 1.17 |
| C50U U51C | 0.8 |
| C50G U69A | 0.17 |
| C50G U69C | 0.14 |
| C50U A77G | 1.11 |
| U51C A56U | 0.74 |

| Variant | self-cleavage |
| --- | --- |
| U51C A56G | 0.84 |
| U51C A56C | 0.31 |
| U51A C71U | 0.73 |
| U51A U80C | 1 |
| U51A U80A | 1.07 |
| U51A U80G | 1.18 |
| C50A U69C | 0.49 |
| C50A U69A | 0.42 |
| C50A U66C | 0.3 |
| C50U G61A | 0.55 |
| C50U U58C | 0.35 |
| U51C C62A | 0.31 |
| U51C C62U | 0.31 |
| U51C C62G | 0.39 |
| U51C A57C | 0.44 |
| U51C A57G | 0.91 |
| U51C A57U | 0.44 |
| C50A U78G | 1.06 |
| C50A U78C | 0.71 |
| C50G A56U | 0.45 |
| U51A G55U | 1.08 |
| U49G U72C | 0.72 |
| U49G U69C | 0.21 |
| U49G U69A | 0.36 |

| Variant | self-cleavage |
| --- | --- |
| C50U A56G | 0.85 |
| C50U A56U | 0.82 |
| U51C C79A | 1.24 |
| C50U U66C | 0.45 |
| C50U U66A | 0.22 |
| U51C | 1.04 |
| U51A | 1.05 |
| U51A G73A | 1.15 |
| U51A A75U | 1.03 |
| U51A A75G | 0.86 |
| C50A A57U | 0.22 |
| C50G G61A | 0.27 |
| C50A U80A | 0.83 |
| C50A U80C | 1.05 |
| C50G U51C | 0.68 |
| U49G U67C | 0.31 |
| U51A G52C | 1.09 |
| U51A G52A | 1.21 |
| U51A G52U | 1.16 |
| U51A A64G | 0.93 |
| U51A A64C | 0.51 |
| U51A A64U | 0.46 |
| C50A A77U | 0.67 |
